Laboratory results as given in article PMC7566476, “MYB61 is regulated by GRF4 and promotes nitrogen utilization and biomass production in rice”.

T1: GST-GRF4 (UniProt Q6ZIK5)
T1 sequence: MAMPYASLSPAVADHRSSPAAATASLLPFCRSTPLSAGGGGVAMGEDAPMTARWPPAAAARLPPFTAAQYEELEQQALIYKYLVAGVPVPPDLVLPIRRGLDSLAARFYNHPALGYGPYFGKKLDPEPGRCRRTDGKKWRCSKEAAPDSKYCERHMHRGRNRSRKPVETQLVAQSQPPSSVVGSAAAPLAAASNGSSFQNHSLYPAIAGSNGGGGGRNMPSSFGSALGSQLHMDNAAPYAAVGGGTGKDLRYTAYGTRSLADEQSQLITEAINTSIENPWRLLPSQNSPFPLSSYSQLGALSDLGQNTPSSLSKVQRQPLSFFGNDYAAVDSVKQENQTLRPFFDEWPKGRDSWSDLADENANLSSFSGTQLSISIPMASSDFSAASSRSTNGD

T2: GST-GRF4 (UniProt Q6ZIK5 1-394)
T2 sequence: T1 sequence

B1: MYB61 promoter motif 2 probe (within P8) (dsDNA)
DNA 1: CAAAAAGGCTGCGGTAATTAAGTCACAGTA
DNA 2: TACTGTGACTTAATTACCGCAGCCTTTTTG

How the values were obtained:
[1] = molecular target: T1, GST-GRF4; assay: EMSA; conditions: EMSA binding buffer (Beyotime; composition, salt and pH not given), 4 °C; unlabeled competitor 50-, 100- and 500-fold
[2] = molecular target: T2, GST-GRF4; assay: EMSA; EMSA binding buffer (Beyotime; composition, salt and pH not given), 4 °C; unlabeled competitor 50-, 100- and 500-fold; conditions: protein: recombinant; tags: N-terminal GST (pGEX-6P-1); label: biotin; blunt

| Molecule | binding [1] | binding result [2] |
| --- | --- | --- |
| AATCTGTGCTCCAATCCAAGAAGATCATCTCTGGCACCTCTCAAGATGCTAAGCAATCAGCTGTGAGAACCAGGCCTATGCTGATGATTGCTTTTGCAGAGTTACAAACAGCATGATTTCCTCACTGGCCGTATTCTCGCTCAGAAGCAAATCCCAAT (double strand) [MYB61 promoter P1 fragment] | no binding |  |
| B1 |  | binds |
